We go through four substances from paper PMC5981469.

One may read the Kd as the constant that tells how readily two partners part at equilibrium. For orientation: stoichiometry N means the number of molecules, sites or subunits per partner or assembly.

For the assay, the target named is envelope protein domain III from dengue virus serotype 2 (DENV2 DIII) (dengue virus serotype 2). The assay is described as follows: ITC. (In ITC the heat of successive injections is recorded.)
Take scFv4E11 bearing the AlaH55Glu mutation: the Kd was found to be 12.8 nM, the other is -1.89 kcal/mol and the stoichiometry N worked out at 1.04 sites.
For “scFv513 bearing the single mutation GluH55Ala”, in that order: 28.7 nM, -1.78 kcal/mol and 0.99 sites.
“single-chain variable fragment of humanized monoclonal antibody 513 (scFv513), wild type”: the dissociation constant (Kd) turned out to be 1.64 nM, the other was -4.28 kcal/mol and the stoichiometry N worked out at 1.01 sites.
With “single-chain variable fragment of murine monoclonal antibody 4E11 (scFv4E11), wild type”, the dissociation constant (Kd) is 30.7 nM, the other was -2.09 kcal/mol and the stoichiometry N worked out at 0.96 sites.
